Results on two proteins are retold here after patent US20210230570.

The target of series [1] is plasma purified human AT-III (Molecular Innovations).
The target in series [2] is antithrombin III (plasma purified human AT-III), in complex with unfractionated heparin.

Substitutions are numbered along the chain they refer to. Names may count otherwise.

Chain of Factor X, P00742 (P00742 whole entry, looked up): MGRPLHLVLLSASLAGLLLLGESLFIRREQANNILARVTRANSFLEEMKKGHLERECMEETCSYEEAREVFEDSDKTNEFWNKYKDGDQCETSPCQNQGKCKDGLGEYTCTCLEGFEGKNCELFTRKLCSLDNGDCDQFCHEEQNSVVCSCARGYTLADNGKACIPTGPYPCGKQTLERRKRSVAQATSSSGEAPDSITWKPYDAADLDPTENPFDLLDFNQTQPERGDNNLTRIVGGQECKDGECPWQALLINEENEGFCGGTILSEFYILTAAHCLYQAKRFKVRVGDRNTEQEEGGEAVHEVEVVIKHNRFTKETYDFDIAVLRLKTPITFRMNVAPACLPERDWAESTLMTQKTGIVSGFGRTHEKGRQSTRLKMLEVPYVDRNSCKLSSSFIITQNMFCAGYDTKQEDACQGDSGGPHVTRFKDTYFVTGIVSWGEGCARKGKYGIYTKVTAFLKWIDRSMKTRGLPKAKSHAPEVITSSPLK
Chain of Factor X (FX), P00742 (P00742 whole entry, looked up): as above

B1: FIXa-K293A/R338A/R403A (protein)
chain 1: YNSGKLEEFVQGNLERECMEEKCSFEEAREVFENTERTTEFWKQYVDGDQCESNPCLNGGSCKDDINSYECWCPFGFEGKNCELDVTCNIKNGRCEQFCKNSADNKVVCSCTEGYRLAENQKSCEPAVPFPCGRVSVSQTSKLTR
chain 2: VVGGEDAKPGQFPWQVVLNGKVDAFCGGSIVNEKWIVTAAHCVETGVKITVVAGEHNIEETEHTEQKRNVIRIIPHHNYNAAINKYNHDIALLELDEPLVLNSYVTPICIADAEYTNIFLKFGSGYVSGWGRVFHKGRSALVLQYLRVPLVDRATCLASTKFTIYNNMFCAGFHEGGRDSCQGDSGGPHVTEVEGTSFLTGIISWGEECAMKGKYGIYTKVSAYVNWIKEKTKLT
As for B1, in series [1], the K0.5-mut/K0.5-wt is 16.9. For the same protein, in the series with Factor X, P00742, the “% of WT (kcat/KM)” value is given as 53% and the kcat/KM (in general, the second-order rate constant that governs catalysis at low substrate concentration) came out at 2.5e+07 M⁻¹ s⁻¹. In series [2], the K0.5 was greater than 999 nM and the K0.5-mut/K0.5-wt is greater than 51.7. In the series with Factor X (FX), P00742, the kcat (FX activation in the Xase complex) stood at 1.6 s⁻¹ and the kcat/KM for FX activation (Xase assay with FVIIIa, PC/PS vesicles, Ca2+) is 2.5e+07 M⁻¹ s⁻¹.

B2: FIXa-K293E/R338E/R403E (protein)
chain 1: B1 chain 1
chain 2: B1 chain 2 with A113E, A158E, A223E
Regarding B2, the K0.5-mut/K0.5-wt in series [1] came out at 14.2. Besides, in the series with Factor X, P00742, the “% of WT (kcat/KM)” value is 36%, the KM (Catalytic activity of FIXa variants) stood at 0.05 µM and the kcat/KM was determined as 1.7e+07 M⁻¹ s⁻¹. Further, in series [2], the K0.5 was greater than 999 nM and the K0.5-mut/K0.5-wt was greater than 51.7. Also, in the series with Factor X (FX), P00742, the kcat (FX activation in the Xase complex) came out at 0.8 s⁻¹ and the kcat/KM for FX activation (Xase assay with FVIIIa, PC/PS vesicles, Ca2+) turned out to be 1.7e+07 M⁻¹ s⁻¹.
